The results in this text go back to US20210079109A1 (Regeneron, published 2021).

For assay [1], the target named is T1, human CD63 (human, UniProt P08962 2-238).
T1 construct: stably transfected in NIH3T3/hCD63; The cell line is named under assay; also called hCD63
T1 sequence: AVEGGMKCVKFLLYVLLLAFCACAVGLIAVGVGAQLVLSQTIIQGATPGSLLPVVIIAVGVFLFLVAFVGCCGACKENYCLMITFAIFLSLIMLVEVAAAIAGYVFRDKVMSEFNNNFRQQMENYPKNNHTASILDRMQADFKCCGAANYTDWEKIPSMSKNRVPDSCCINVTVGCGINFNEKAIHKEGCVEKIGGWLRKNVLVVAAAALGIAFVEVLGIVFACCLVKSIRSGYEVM
Nature of the assay: ECL, NIH3T3/hCD63 cells; NIH3T3/hCD63 cells, ratio at 3.7 nM Ab: binds. The method, then:
(§1) LNCAP cells were determined to have a lower human CD63 copy number than U87MG cells. Non-transfected NIH3T3 cells, which have no detectable expression of human CD63 by fluorescence activated cell sorting (FACS), were included as a negative control.
(§2) Briefly, cell lines were rinsed once in PBS buffer without Ca²⁺/Mg²⁺ and incubated for 10 minutes at 37° C. with Enzyme Free Cell Dissociation Solution (Millipore, Cat #S-004-C) to detach the cells. Cells were then washed once with PBS with Ca²⁺/Mg²⁺ and counted with a Cellometer™ Auto T4 cell counter (Nexcelom Bioscience, LLC). Approximately 2.0×10⁴ NIH3T3/hCD63, LNCAP, U87MG or NIH3T3 cells were seeded separately onto 96-well carbon electrode plates […]) and were then incubated for one hour at 37° C. Nonspecific binding sites were blocked with 2% BSA (w/v) in PBS with Ca²⁺/Mg²⁺ for one hour at room temperature (RT). […] Plates were washed and then incubated with Read Buffer (MSD, Cat #R92TD-2) according to the manufacturer's instructions. Luminescent signals were measured using a SECTOR Imager (MSD).

Assay [2] deals with T1, human CD63. Briefly: ECL, LNCAP cells; LNCAP cells (lower CD63 copy number), ratio at 3.7 nM Ab: non-binder. The method, then: as §1, §2
The target of assay [3] is T2, recombinant human CD63 extracellular loop 2 expressed with a C-terminal human Fc tag (human).
T2 construct: also called hCD63 EC loop 2-hFc; human CD63 EC loop 2-Fc
Nature of the assay: SPR Biacore, mAb captured, 25C. The method, boiled down: (§3)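 Anti-CD63 mAbs captured on anti-mouse Fc or anti-human Fab surfaces; CD63 EC2 reagents flowed in HBS-ET, pH 7.4, at 25° C or 37° C. ka and kd from 1:1 binding model with mass transport limitation; KD and t½ calculated from kinetic rates.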

In assay [4] the target is T3, recombinant human CD63 extracellular loop 2 expressed with a C-terminal Myc-Myc-hexahistidine (human).
T3 construct: also called hCD63 EC loop 2-MMH; human CD63 EC loop 2-MMH
Nature of the assay: SPR Biacore, mAb captured, 25C. In short, it runs like this:
as §3

In assay [5] the target is T1, human CD63. Nature of the assay: ECL, NIH3T3/hCD63 cells; NIH3T3/hCD63 cells (engineered, CD63 overexpressed): binds. The method, then: as §1, §2
The target of assay [6] is T1, human CD63. Nature of the assay: ECL, U87MG cells; U87MG cells (endogenous CD63), ratio at 3.7 nM Ab: binds, EC50 inconclusive. As to the method:
as §1, §2

Assay [7] deals with T2, recombinant human CD63 extracellular …. Briefly: SPR Biacore, mAb captured, 37C. In short, it runs like this: as §3
(In general: Surface plasmon resonance follows binding to a sensor surface in real time, without labels.)

Assay [8] concerns the target T3, recombinant human CD63 extracellular …. Nature of the assay: SPR Biacore, mAb captured, 37C. The method, boiled down: as §3

T2 sequence (chain, as listed by the source limits assumed): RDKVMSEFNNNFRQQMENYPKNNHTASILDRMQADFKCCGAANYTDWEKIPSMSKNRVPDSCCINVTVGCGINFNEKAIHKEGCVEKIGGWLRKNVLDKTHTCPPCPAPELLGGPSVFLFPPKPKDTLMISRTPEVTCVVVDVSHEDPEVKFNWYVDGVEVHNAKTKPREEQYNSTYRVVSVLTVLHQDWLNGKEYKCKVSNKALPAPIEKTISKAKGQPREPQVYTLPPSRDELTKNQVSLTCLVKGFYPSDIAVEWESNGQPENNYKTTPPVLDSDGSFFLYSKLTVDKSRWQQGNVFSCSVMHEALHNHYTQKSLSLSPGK
T3 sequence (chain, as listed by the source limits assumed): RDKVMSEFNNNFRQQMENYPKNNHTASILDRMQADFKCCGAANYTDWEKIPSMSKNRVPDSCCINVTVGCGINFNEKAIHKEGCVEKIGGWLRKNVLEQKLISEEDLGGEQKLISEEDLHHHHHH

B1: H4H11998P2 (antibody, V domains shown)
VH: QVQLVESGGGLVKPGGSLRLSCAASGFSFSDYYITWIRQAPGKGLEWVSYINTGGYTMYYADSVKGRFTISRDNAKNSLYLQMNNLRAEDTAVYYCTRDRRYNFGLDYWGQGTLVTVSS
VL: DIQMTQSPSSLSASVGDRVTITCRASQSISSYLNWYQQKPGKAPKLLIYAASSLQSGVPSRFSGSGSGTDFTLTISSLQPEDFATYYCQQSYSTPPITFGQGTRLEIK
On to B1, for which the “binding ratio at 3.7 nM vs NIH3T3” value is 14 fold with human CD63 [1], 1 fold with human CD63 [2] and 5 fold in the assay with human CD63 [6]. In addition, the “100 nM Ag Bound (RU)” value amounted to 136 RU in assay [3], 11 RU in assay [4], 111 RU in assay [7] and 3 RU in assay [8]. In addition, the Kd (commonly the constant that tells how readily two partners part at equilibrium) in assay [3] is 2.58 nM; in assay [4], 11.7 µM; in assay [7] it was 6.5 nM; in assay [8], 174 nM. The koff – broadly, a measure of how fast the partners let go of each other – in assay [3] worked out at 0.000453 s⁻¹; in assay [4] it was 0.0309 s⁻¹; in assay [7], 0.00207 s⁻¹; in assay [8], 0.0917 s⁻¹. The kon (usually a measure of how fast the partners come together) in assay [3] amounted to 175000 M⁻¹ s⁻¹; in assay [4], 2640 M⁻¹ s⁻¹; in assay [7], 318000 M⁻¹ s⁻¹; in assay [8], 528000 M⁻¹ s⁻¹. Also, the t1/2 in assay [3] came out at 26 min; in assay [4], 0.4 min; in assay [7] it was 6 min; in assay [8] it was 0.1 min. In addition, the half-maximal effective concentration (EC50) (as a rule, the midpoint of the concentration-response curve) with human CD63 [5] stood at 7.4 nM.
